Measured values reported in article PMC7565984, “A Phosphorylation-Induced Switch in the Nuclear Localization Sequence of the Intrinsically Disordered NUPR1 Hampers Binding to Importin” (Biomolecules, 2020).
Where a SMILES comes first, the peptide text is derived from it. [ ]: non-standard residue; d: D form. pT = C[C@@H](OP(=O)(O)O)[C@H](N)C(=O)O

Columns and labels:
[1] = target: T1, human importin α3 (Impα3) (Homo sapiens, UniProt O00629); assay: ITC binding of NLS-NUPR1 peptides / NUPR1 to Impα3; settings: ITC, 298 K, Tris 50 mM pH 8; for ΔH (binding enthalpy), Impα3: absolute error 0.5 kcal/mol
T1 construct: although the IBB region maintains its independence within the whole Impα3 in terms of conformation; His-tag (N); made in house; host or cells: Escherichia coli BL21 (DE3)
T1 sequence (O00629 1-521): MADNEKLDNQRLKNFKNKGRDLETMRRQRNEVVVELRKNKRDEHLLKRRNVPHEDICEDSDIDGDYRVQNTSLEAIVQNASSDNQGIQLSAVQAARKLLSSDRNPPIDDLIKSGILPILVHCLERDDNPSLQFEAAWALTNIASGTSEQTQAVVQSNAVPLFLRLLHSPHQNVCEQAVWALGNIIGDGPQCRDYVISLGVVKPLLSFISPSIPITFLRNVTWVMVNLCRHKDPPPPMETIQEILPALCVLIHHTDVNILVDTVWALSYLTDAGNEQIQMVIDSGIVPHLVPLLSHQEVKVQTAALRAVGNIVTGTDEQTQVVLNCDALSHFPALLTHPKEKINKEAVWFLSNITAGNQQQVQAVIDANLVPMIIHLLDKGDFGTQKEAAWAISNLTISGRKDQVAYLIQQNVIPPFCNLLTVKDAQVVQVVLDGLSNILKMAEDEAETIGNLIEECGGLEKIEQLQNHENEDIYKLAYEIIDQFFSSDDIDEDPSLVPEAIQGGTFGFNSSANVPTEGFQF
Protocol: (§1) The experimental set-up and data processing of ITC experiments has been described previously. Calorimetric titrations, performed in an Auto-iTC200 calorimeter (MicroCal, Malvern-Panalytical, Malvern, UK) consisted of series of 19 2-μL injections, with 150 s time spacing and a 750-rpm stirring speed. Impα3 or ΔImpα3 (at 10–20 μM) was loaded into the calorimetric cell and NLS-NUPR1 peptides in the syringe (150–300 μM); all solutions were prepared in buffer Tris 50 mM, pH 8. […] The binding affinity (association constant) and the binding enthalpy were estimated through a least-squares nonlinear regression data analysis, from which the Gibbs energy and the entropic contribution to the binding were calculated using well-known thermodynamic relationships. Since the binding stoichiometry is constrained by the model, the parameter n provides a fraction of the active or binding competent protein. Experiments for each peptide and importin species were performed, at least, in duplicates.

[2] = Translational diffusion by NMR DOSY (hydrodynamic properties); format: physicochemical; settings: for D, translational diffusion coefficient: 283 K, pH 7.2, 50-mM deuterated Tris, 100% D2O, peptide 120 μM; for Rh, hydrodynamic radius from D: from the translational diffusion coefficient of dioxane (Rh = 2.12 Å) added to each sample
Protocol: Concentrations of peptides in all DOSY experiments were 120 μM, and 128 scans, where the gradient strength was varied, were acquired for each curve. Translational self-diffusion measurements were performed with the pulsed gradient spin-echo sequence in the presence of 100% D2O. Experimental details have been described elsewhere. Briefly, the gradient strength was varied in sixteen linear steps between 2% and 95% of the total power of the gradient coil. The gradient strength was previously calibrated by using the value of the translational diffusion coefficient, D, for the residual proton water line in a sample containing 100% D2O in a 5-mm tube [34]. In our experiments for each peptide, the duration of the gradient was 2.25 ms, the time between the two pulse gradients in the pulse sequence was set to 200 ms, and the recovery delay between the bipolar gradients was set to 100 μs. The methyl groups with signals between 1.0 and 0.80 ppm were used for integration. Fitting of the exponential curves obtained from experimental data was carried out with KaleidaGraph (Synergy Software, Version 3.5), as described. A final concentration of 1% of dioxane, which was assumed to have a hydrodynamic radius Rh = 2.12 Å [34], was added to the solutions of each of the peptides to have a comparison for estimating their sizes.

[3] = target: T2, ΔImpα3 (importin α3 without the IBB domain, residues 64-521) (Homo sapiens, UniProt O00629); assay: ITC binding of NLS-NUPR1 peptides / NUPR1 to ΔImpα3; settings: ITC, 298 K, Tris 50 mM pH 8; for ΔH (binding enthalpy), ΔImpα3: absolute error 0.5 kcal/mol; for −TΔS (entropic contribution), ΔImpα3: calculated from Kd and ΔH, absolute error 0.7 kcal/mol
T2 construct: The His-tagged ΔImpα3 (residues 64-521) was obtained from BL21 (DE3) cells as described; His-tag; made in house; host or cells: Escherichia coli BL21 (DE3)
T2 sequence (O00629 64-521): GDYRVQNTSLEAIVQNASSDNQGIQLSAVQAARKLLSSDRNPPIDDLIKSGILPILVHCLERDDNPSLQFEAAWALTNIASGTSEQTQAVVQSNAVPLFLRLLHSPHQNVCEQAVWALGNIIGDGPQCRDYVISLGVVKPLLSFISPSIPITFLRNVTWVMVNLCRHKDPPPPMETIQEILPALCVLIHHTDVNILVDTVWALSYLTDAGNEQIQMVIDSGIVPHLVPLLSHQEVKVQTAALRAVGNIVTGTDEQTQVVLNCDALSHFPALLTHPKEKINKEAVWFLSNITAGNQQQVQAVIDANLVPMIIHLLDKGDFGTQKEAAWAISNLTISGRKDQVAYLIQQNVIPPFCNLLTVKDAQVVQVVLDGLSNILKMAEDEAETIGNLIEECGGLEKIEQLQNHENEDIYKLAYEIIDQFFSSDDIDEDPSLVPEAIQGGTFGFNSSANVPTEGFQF
Protocol: as §1

[4] = target: T3, human importin α3 (intact, with the IBB domain) (human, UniProt O00629 1-521); assay: ITC; Impα3 or ΔImpα3 (10–20 μM) in the cell, NLS-NUPR1 peptide (150–300 μM) in the syringe; Tris 50 mM, pH 8; 298 K; single ligand binding site (1:1) model, n gives the fraction of binding-competent protein; settings: both partners purified
T3 construct: human importin α3 (KPNA4), intact protein with the IBB domain; codon-optimized synthetic DNA in the vector pHTP1; also called Impα3; KPNA4; source: E. coli BL21 (DE3), purified (as for ΔImpα3)
T3 sequence (looked up): T1 sequence (O00629 1-521)

[5] = target: T4, truncated importin α3 without the IBB domain (residues 64-521) (human, UniProt O00629 64-521); assay: as above; settings: both partners purified
T4 construct: human importin α3 (KPNA4) without the IBB domain, residues 64-521; also called ΔImpα3; ΔImportin
T4 sequence (looked up): T2 sequence (O00629 64-521)

CC(=O)N[C@@H](Cc1ccc(O)cc1)C(=O)N[C@H](C(=O)N[C@@H](CC(N)=O)C(=O)N[C@@H](CCCNC(=N)N)C(=O)N1CCC[C@H]1C(=O)N[C@@H](CO)C(=O)N1CCC[C@H]1C(=O)NCC(=O)NCC(=O)N[C@@H](Cc1c[nH]cn1)C(=O)N[C@@H](CCC(=O)O)C(=O)N[C@@H](CCCNC(=N)N)C(=O)N[C@@H](C)C(=O)N[C@@H](CC(C)C)C(=O)N[C@H](C(=O)N[C@@H](CCC(=O)O)C(=O)N[C@@H](C)C(=O)N[C@@H](CC(C)C)C(=O)N[C@@H](CCC(N)=O)C(=O)N[C@@H](CC(N)=O)C(=O)N[C@@H](CO)C(=O)N[C@@H](CCC(=O)O)C(N)=O)C(C)C)[C@@H](C)O [K65AT68EK69A] (Ac-YTNRPSPGGHERALVEALQNSE-NH2)
ΔH (binding enthalpy), Impα3 [1]: -16.3 kcal/mol | Kd ([1]; importin 10–20 μM in cell, peptide 150–300 μM in syringe, 1:1 model, at least duplicates, relative error 30%, read-out: Kd (dissociation constant), Impα3): 27 µM | D, translational diffusion coefficient [2]: 2.4 ± 0.2 cm^2 s^−1 × 10^6 | Rh, hydrodynamic radius from D [2]: 9 ± 2 Å | ΔH (binding enthalpy), ΔImpα3 [3]: -28.5 kcal/mol | −TΔS (entropic contribution), ΔImpα3 [3]: 22.2 kcal/mol

CC(=O)N[C@@H](Cc1ccc(O)cc1)C(=O)N[C@H](C(=O)N[C@@H](CC(N)=O)C(=O)N[C@@H](CCCNC(=N)N)C(=O)N1CCC[C@H]1C(=O)N[C@@H](CO)C(=O)N1CCC[C@H]1C(=O)NCC(=O)NCC(=O)N[C@@H](Cc1c[nH]cn1)C(=O)N[C@@H](CCC(=O)O)C(=O)N[C@@H](CCCNC(=N)N)C(=O)N[C@@H](C)C(=O)N[C@@H](CC(C)C)C(=O)N[C@H](C(=O)N[C@@H](CCC(=O)O)C(=O)N[C@@H](CCCCN)C(=O)N[C@@H](CC(C)C)C(=O)N[C@@H](CCC(N)=O)C(=O)N[C@@H](CC(N)=O)C(=O)N[C@@H](CO)C(=O)N[C@@H](CCC(=O)O)C(N)=O)C(C)C)[C@@H](C)O [K65AT68E] (Ac-YTNRPSPGGHERALVEKLQNSE-NH2)
ΔH (binding enthalpy), Impα3 [1]: -7.8 kcal/mol | −TΔS (entropic contribution), Impα3 ([1]; calculated from Kd and ΔH, absolute error 0.7 kcal/mol): 1.4 kcal/mol | D, translational diffusion coefficient [2]: 1.76 ± 0.06 cm^2 s^−1 × 10^6 | Rh, hydrodynamic radius from D [2]: 12 ± 1 Å | ΔH (binding enthalpy), ΔImpα3 [3]: -17.9 kcal/mol | −TΔS (entropic contribution), ΔImpα3 [3]: 11.3 kcal/mol

B1: wild-type NLS-NUPR1 peptide (residues 54-74 of NUPR1 with an added N-terminal Tyr) (peptide)
peptide: Ac-YTNRPSPGGHERKLVTKLQNSE-NH2
notes: tyrosine introduced at the N terminus for absorbance measurements; not a residue of NUPR1; The added Tyr stands where NUPR1 has residue 53; also called wt; wt peptide; source: synthetic peptide (NZYtech, purity 95%)
Kd [4]: 1.7 µM | dH [4]: 0.8 kcal/mol | stoichiometry N [4]: 0.9 | Kd [5]: 0.95 µM | dH [5]: -3.7 kcal/mol | stoichiometry N [5]: 1

B2: NLS-NUPR1 peptide K65A (peptide)
peptide: Ac-YTNRPSPGGHERALVTKLQNSE-NH2
notes: tyrosine introduced at the N terminus for absorbance measurements; not a residue of NUPR1; also called K65A peptide; Lys65Ala; source: synthetic peptide (NZYtech, purity 95%)
Kd [4]: 3.9 µM | dH [4]: -2.8 kcal/mol | stoichiometry N [4]: 1.4 | Kd [5]: 2.7 µM | dH [5]: -10.2 kcal/mol | stoichiometry N [5]: 1.4

B3: NLS-NUPR1 peptide K65AT68E (peptide)
peptide: Ac-YTNRPSPGGHERALVEKLQNSE-NH2
notes: tyrosine introduced at the N terminus for absorbance measurements; not a residue of NUPR1; also called K65AT68E peptide; source: synthetic peptide (NZYtech, purity 95%)
Kd [4]: 21 µM | dH [4]: -7.8 kcal/mol | Kd [5]: 14 µM | dH [5]: -17.9 kcal/mol

B4: NLS-NUPR1 peptide K65AT68EK69A (peptide)
peptide: Ac-YTNRPSPGGHERALVEALQNSE-NH2
notes: tyrosine introduced at the N terminus for absorbance measurements; not a residue of NUPR1; also called K65AT68EK69A peptide; triple mutant; source: synthetic peptide (NZYtech, purity 95%)
dH [4]: -16.3 kcal/mol | Kd [5]: 24 µM | dH [5]: -28.5 kcal/mol

B5: NLS-NUPR1 peptide K69A (peptide)
peptide: Ac-YTNRPSPGGHERKLVTALQNSE-NH2
notes: tyrosine introduced at the N terminus for absorbance measurements; not a residue of NUPR1; also called K69A peptide; Lys69Ala; source: synthetic peptide (NZYtech, purity 95%)
Kd [4]: 11 µM | dH [4]: -10.8 kcal/mol | stoichiometry N [4]: 1.3 | Kd [5]: 7.6 µM | dH [5]: -21.3 kcal/mol | stoichiometry N [5]: 1.4

B6: NLS-NUPR1 peptide T68E (phospho-mimetic) (peptide)
peptide: Ac-YTNRPSPGGHERKLVEKLQNSE-NH2
notes: tyrosine introduced at the N terminus for absorbance measurements; not a residue of NUPR1; also called T68E peptide; Thr68Glu; source: synthetic peptide (NZYtech, purity 95%)
Kd [4]: 22 µM | dH [4]: -11.1 kcal/mol | Kd [5]: 12 µM | dH [5]: -17.5 kcal/mol

B7: NLS-NUPR1 peptide T68EK69A (peptide)
peptide: Ac-YTNRPSPGGHERKLVEALQNSE-NH2
notes: tyrosine introduced at the N terminus for absorbance measurements; not a residue of NUPR1; also called T68EK69A peptide; source: synthetic peptide (NZYtech, purity 95%)
Kd [4]: 17 µM | dH [4]: -7.5 kcal/mol | Kd [5]: 17 µM | dH [5]: -21.2 kcal/mol

B8: NLS-NUPR1 peptide phosphorylated at Thr68 (peptide)
peptide: Ac-YTNRPSPGGHERKLV[pT]KLQNSE-NH2
SMILES: CC(=O)N[C@@H](Cc1ccc(O)cc1)C(=O)N[C@H](C(=O)N[C@@H](CC(N)=O)C(=O)N[C@@H](CCCNC(=N)N)C(=O)N1CCC[C@H]1C(=O)N[C@@H](CO)C(=O)N1CCC[C@H]1C(=O)NCC(=O)NCC(=O)N[C@@H](Cc1c[nH]cn1)C(=O)N[C@@H](CCC(=O)O)C(=O)N[C@@H](CCCNC(=N)N)C(=O)N[C@@H](CCCCN)C(=O)N[C@@H](CC(C)C)C(=O)N[C@H](C(=O)N[C@H](C(=O)N[C@@H](CCCCN)C(=O)N[C@@H](CC(C)C)C(=O)N[C@@H](CCC(N)=O)C(=O)N[C@@H](CC(N)=O)C(=O)N[C@@H](CO)C(=O)N[C@@H](CCC(=O)O)C(N)=O)[C@@H](C)OP(=O)(O)O)C(C)C)[C@@H](C)O
notes: tyrosine introduced at the N terminus for absorbance measurements; not a residue of NUPR1; Thr68 is printed as pT (phospho-threonine); also called pT68; pT68 peptide; source: synthetic peptide (NZYtech, purity 95%)
Kd [4]: 27 µM | dH [4]: -14.8 kcal/mol | Kd [5]: 29 µM | dH [5]: -28.2 kcal/mol
